Data as given in PMC10786891, “Massively parallel profiling of RNA-targeting CRISPR-Cas13d”.
Numbering of substitutions follows the chain as printed. Numbers in names are those of the source.

Target: T1, EsCas13d, nuclease-dead (Eubacterium siraeum, UniProt B0MS50, R295A;H300A;R849A;H854A)
T1 sequence: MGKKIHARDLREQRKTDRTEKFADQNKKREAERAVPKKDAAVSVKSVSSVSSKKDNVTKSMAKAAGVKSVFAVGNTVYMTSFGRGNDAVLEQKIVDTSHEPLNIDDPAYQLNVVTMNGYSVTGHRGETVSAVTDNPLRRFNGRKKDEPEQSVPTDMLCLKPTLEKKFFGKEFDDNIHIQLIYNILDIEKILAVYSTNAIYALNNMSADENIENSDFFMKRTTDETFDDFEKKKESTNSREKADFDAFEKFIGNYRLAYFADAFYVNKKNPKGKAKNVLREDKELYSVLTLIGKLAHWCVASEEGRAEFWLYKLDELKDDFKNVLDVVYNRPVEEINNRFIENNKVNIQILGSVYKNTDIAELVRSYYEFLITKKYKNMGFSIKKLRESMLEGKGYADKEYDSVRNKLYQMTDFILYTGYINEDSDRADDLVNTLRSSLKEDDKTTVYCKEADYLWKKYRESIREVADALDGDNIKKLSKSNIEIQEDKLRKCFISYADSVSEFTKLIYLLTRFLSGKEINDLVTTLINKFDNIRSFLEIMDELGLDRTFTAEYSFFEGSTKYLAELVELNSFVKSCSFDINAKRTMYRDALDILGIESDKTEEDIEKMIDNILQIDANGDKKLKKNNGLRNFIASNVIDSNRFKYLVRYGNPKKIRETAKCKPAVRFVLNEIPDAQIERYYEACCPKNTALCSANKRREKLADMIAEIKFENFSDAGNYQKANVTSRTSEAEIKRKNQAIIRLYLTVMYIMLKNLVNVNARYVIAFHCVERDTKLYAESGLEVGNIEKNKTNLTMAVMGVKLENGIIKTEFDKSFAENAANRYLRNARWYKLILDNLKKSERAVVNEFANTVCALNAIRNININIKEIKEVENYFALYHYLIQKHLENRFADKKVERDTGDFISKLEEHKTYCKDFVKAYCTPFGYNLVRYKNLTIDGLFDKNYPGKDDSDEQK
Experiment: crRNA (strand 1, pre-loaded); Mg2+; 40 mM Tris-HCl pH 7.5, 150 mM NaCl, 6 mM MgCl2, 1 mM DTT, 0.1% Tween-20, 0.2 mg/ml BSA; 25 C; 10 min per concentration, then washed
Details: tags: His6-TwinStrep-SUMO cleaved; N-terminal SNAP kept (SNAP-Surface 488); label: 3' end held by stalled T7 RNA polymerase

B1: target 1 insC 3' of 22,insA 3' of 7 (mixed)
RNA 1: CACCCGUGCAAAAAUGCAGGGGUCUAAAACUGAGCGGAUAACCUCUCUAUGG
RNA 2: GGGAAUGGAUCCACAUCUACGAAUUCGUACCCAUAGAGAGGUUAUCACGCUCACCGAGAUCGGAAGAGCACACGU
Kd: 17.6 ± 2.5 nM

B2: target 1 complement block 6-13 (mixed)
RNA 1: B1 RNA 1
RNA 2: GGGAAUGGAUCCACAUCUACGAAUUCGUACCAUAGAGACCAAUAGGGCUCACCGAGAUCGGAAGAGCACACGU
Kd: 92 ± 15 nM

B3: target 1 U3A,C22A (mixed)
RNA 1: B1 RNA 1
RNA 2: GGGAAUGGAUCCACAUCUACGAAUUCGUAACAUAGAGAGGUUAUCCGCACACCGAGAUCGGAAGAGCACACGU
Kd: 60 ± 17 nM

B4: target 1 insG 3' of 11,insG 3' of 11 (mixed)
RNA 1: B1 RNA 1
RNA 2: GGGAAUGGAUCCACAUCUACGAAUUCGUACCAUAGAGAGGUGGUAUCCGCUCACCGAGAUCGGAAGAGCACACGU
Kd: 86 ± 26 nM

B5: target 1 insC 3' of 22,insU 3' of 5 (mixed)
RNA 1: B1 RNA 1
RNA 2: B1 RNA 2 with A47C, C48G, G49U
Kd: 24.3 ± 3.1 nM

B6: target 1 insA 3' of 13,insG 3' of 1 (mixed)
RNA 1: B1 RNA 1
RNA 2: GGGAAUGGAUCCACAUCUACGAAUUCGUACCAUAGAGAGAGUUAUCCGCUCAGCCGAGAUCGGAAGAGCACACGU
Kd: 3.08 ± 0.21 nM

B7: target 1 insC 3' of 9,insG 3' of 1 (mixed)
RNA 1: B1 RNA 1
RNA 2: B6 RNA 2 with A40G, G41U, U43A, A44C
Kd: 12.2 ± 1.2 nM

B8: target 1 C6A,U11A (mixed)
RNA 1: B1 RNA 1
RNA 2: B3 RNA 2 with A30C, U41A, C46A, A49U
Kd: 28.1 ± 1.7 nM

B9: target 1 insU 3' of 18,insU 3' of 9 (mixed)
RNA 1: B1 RNA 1
RNA 2: B1 RNA 2 with C32A, A33U, U34A, A35U, C46U, A47C
Kd: 49 ± 8 nM

B10: target 1 insG 3' of 8,insU 3' of 1 (mixed)
RNA 1: B1 RNA 1
RNA 2: B6 RNA 2 with A40G, G41U, U43A, A44U, U45G, G53U
Kd: 12.6 ± 0.9 nM

B11: target 1 U10A,A18U (mixed)
RNA 1: B1 RNA 1
RNA 2: B3 RNA 2 with A30C, A34U, U42A, A49U
Kd: 43 ± 4 nM

B12: target 1 insA 3' of 21,insA 3' of 6 (mixed)
RNA 1: B1 RNA 1
RNA 2: B1 RNA 2 with C32A, A47C, C48A
Kd: 22.1 ± 2.3 nM

B13: target 1 insC 3' of 11,insG 3' of 3 (mixed)
RNA 1: B1 RNA 1
RNA 2: B6 RNA 2 with A40G, G41U, U42C, C51G, A52C, G53A
Kd: 24.9 ± 1.4 nM

B14: target 1 G13A,G15A (mixed)
RNA 1: B1 RNA 1
RNA 2: B3 RNA 2 with A30C, G37A, G39A, A49U
Kd: 10.3 ± 0.8 nM

B15: target 1 insA 3' of 15,insG 3' of 4 (mixed)
RNA 1: B1 RNA 1
RNA 2: B6 RNA 2 with G39A, A40G, U50G, C51U, A52C, G53A
Kd: 6.4 ± 0.6 nM

B16: target 1 insC 3' of 10,insU 3' of 6 (mixed)
RNA 1: B1 RNA 1
RNA 2: B4 RNA 2 with G42U, G43C, U44A, A45U, U46C, C48U
Kd: 46 ± 5 nM

B17: target 1 insU 3' of 14,insU 3' of 4 (mixed)
RNA 1: B1 RNA 1
RNA 2: B6 RNA 2 with G39U, A40G, C51U, A52C, G53A
Kd: 63 ± 13 nM

B18: target 1 insU 3' of 22,insG 3' of 8 (mixed)
RNA 1: B1 RNA 1
RNA 2: B1 RNA 2 with C31U, C46G, A47C
Kd: 49 ± 4 nM

B19: target 1 insU 3' of 2 (mixed)
RNA 1: B1 RNA 1
RNA 2: GGGAAUGGAUCCACAUCUACGAAUUCGUACCAUAGAGAGGUUAUCCGCUCUACCGAGAUCGGAAGAGCACACGU
Kd: 9.7 ± 0.8 nM

B20: target 1 insU 3' of 20,insA 3' of 13 (mixed)
RNA 1: B1 RNA 1
RNA 2: B4 RNA 2 with A34U, G35A, A36G, G37A, A38G, G39A, U41A, G43U
Kd: 8.4 ± 1.2 nM

B21: target 1 insA 3' of 22,insC 3' of 17 (mixed)
RNA 1: B1 RNA 1
RNA 2: GGGAAUGGAUCCACAUCUACGAAUUCGUACACAUAGCAGAGGUUAUCCGCUCACCGAGAUCGGAAGAGCACACGU
Kd: 47 ± 19 nM

B22: target 1 C6G,G15A (mixed)
RNA 1: B1 RNA 1
RNA 2: B3 RNA 2 with A30C, G37A, C46G, A49U
Kd: 14.4 ± 0.8 nM

B23: target 1 insC 3' of 20,insG 3' of 14 (mixed)
RNA 1: B1 RNA 1
RNA 2: B21 RNA 2 with A31C, C32A, A33C, C37A, A38G, G39A, A40G
Kd: 10.1 ± 0.8 nM

B24: target 1 C4G,G17U (mixed)
RNA 1: B1 RNA 1
RNA 2: B3 RNA 2 with A30C, G35U, C48G, A49U
Kd: 39 ± 12 nM

B25: target 1 insA 3' of 13,insU 3' of 1 (mixed)
RNA 1: B1 RNA 1
RNA 2: B6 RNA 2 with G53U
Kd: 3.62 ± 0.33 nM

B26: target 1 G5A,G12C (mixed)
RNA 1: B1 RNA 1
RNA 2: B3 RNA 2 with A30C, G40C, G47A, A49U
Kd: 13.5 ± 0.5 nM

B27: target 1 A1G,G17A (mixed)
RNA 1: B1 RNA 1
RNA 2: B3 RNA 2 with A30C, G35A, A49U, A51G
Kd: 41 ± 8 nM

B28: target 1 insC 3' of 22,insA 3' of 4 (mixed)
RNA 1: B1 RNA 1
RNA 2: B1 RNA 2 with A47C, C48G, G49C, C50A
Kd: 15.9 ± 3.1 nM

B29: target 1 U8A,C21A (mixed)
RNA 1: B1 RNA 1
RNA 2: B3 RNA 2 with A30C, C31A, U44A, A49U
Kd: 55 ± 9 nM

B30: target 1 del8,del14 (mixed)
RNA 1: B1 RNA 1
RNA 2: GGGAAUGGAUCCACAUCUACGAAUUCGUACCAUAGAGGGUUACCGCUCACCGAGAUCGGAAGAGCACACGU
Kd: 34.1 ± 2.7 nM

B31: target 1 insA 3' of 8 (mixed)
RNA 1: B1 RNA 1
RNA 2: B19 RNA 2 with C45A, G47C, C48G, U49C, C50U, U51C
Kd: 15.7 ± 1 nM

B32: target 1 insG 3' of 22 (mixed)
RNA 1: B1 RNA 1
RNA 2: GGGAAUGGAUCCACAUCUACGAAUUCGUACGCAUAGAGAGGUUAUCCGCUCACCGAGAUCGGAAGAGCACACGU
Kd: 31 ± 2.8 nM

B33: target 1 insG 3' of 8,insG 3' of 1 (mixed)
RNA 1: B1 RNA 1
RNA 2: B6 RNA 2 with A40G, G41U, U43A, A44U, U45G
Kd: 13.4 ± 0.7 nM

B34: target 1 insG 3' of 10,insA 3' of 8 (mixed)
RNA 1: B1 RNA 1
RNA 2: B4 RNA 2 with G42U, U44A, A45U, U46A
Kd: 21.6 ± 1 nM
